Measurements from patent US20130323249A1 (published 2013).

B1: H6 anti-PD-L1 antibody (antibody, V domains shown)
VH: QMQLVQSGAEVKKPGSSVKVSCKASGGTFSSYAISWVRQAPGQGLEWMGGIIPIFGTANYAQKFQGRVTITADESTSTAYMELSSLRSEDTAVYYCARGNIVATITPLDYWGQGTLVTVSS
VL: SYELMQPPSVSVAPGKTATIACGGENIGRKTVHWYQQKPGQAPVLVIYYDSDRPSGIPERFSGSNSGNTATLTISRVEAGDEADYYCQVWDSSSDHRIFGGGTKLTVL
B2: H10 anti-PD-L1 antibody (antibody, V domains shown)
VH: EVQLVQSGGGLVQPGGSLRLSCAASGFTFSSYSMNWVRQAPGKGLEWVSYISSSSSTIYYADSVKGRFTISRDNAKNSLYLQMNSLRDEDTAVYYCARGDYYYGMDVWGQGTTVTVSS
VL: EIVLTQSPSSLSASIGDRVTLTCRASQSIRRFLNWYQQKPGKAPELLIYTASSLQSGVPSRFSGSGSGTDFTLTINSLQPEDFATYYCQQSYAVSPYTFGQGTKVEIR

Biological target: human PD-L1 expressed on the surface of cells (human, UniProt Q9NZQ7 19-290)
Assay: FACS binding to human lymphocytes

Sequence of human PD-L1 expressed on the surface of cells (Q9NZQ7 19-290): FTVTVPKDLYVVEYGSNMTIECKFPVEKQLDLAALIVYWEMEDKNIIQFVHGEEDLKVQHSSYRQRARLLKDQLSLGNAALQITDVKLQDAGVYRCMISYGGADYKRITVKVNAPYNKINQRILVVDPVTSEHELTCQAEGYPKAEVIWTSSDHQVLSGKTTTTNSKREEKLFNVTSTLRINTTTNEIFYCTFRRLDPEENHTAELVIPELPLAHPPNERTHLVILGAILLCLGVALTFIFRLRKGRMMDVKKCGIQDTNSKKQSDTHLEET

Binder	EC50 [µg/mL]
B1	0.03
B2	0.021
